Experimental data: patent US20250361326A1 (Hoffmann-La Roche, published 2025)

Columns and labels:
VEGF [1] = biological target: T1, VEGF (UniProt P15692-9 27-147); experiment: bridging ELISA of exchange reaction mix, 1.3 µM input; VEGF coated, digoxygenin-Cy5 detection; highest value = 100%; binder has dig arm, no VEGF arm
T1 construct: also called VEGF121
T1 sequence (looked up): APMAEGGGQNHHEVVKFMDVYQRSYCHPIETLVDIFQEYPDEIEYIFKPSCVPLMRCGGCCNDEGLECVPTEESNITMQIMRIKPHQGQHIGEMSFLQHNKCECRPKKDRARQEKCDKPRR

VEGF [2] = biological target: T1, VEGF; experiment: bridging ELISA of exchange reaction mix, 1.3 µM input; VEGF coated, biocytinamid-Cy5 detection; highest value = 100%; binder has neither arm
VEGF [3] = biological target: T1, VEGF; experiment: bridging ELISA, VEGF coated, digoxygenin-Cy5 detection; binder has dig and PDGF arms, no VEGF arm
VEGF [4] = biological target: T1, VEGF; experiment: bridging ELISA, VEGF coated, biocytinamid-Cy5 detection; binder has bio arm, no VEGF arm
VEGF [5] = biological target: T1, VEGF; experiment: bridging ELISA of exchange reaction mix, 1.3 µM input; VEGF coated, biocytinamid-Cy5 detection; highest value = 100%; binder has bio arm, no VEGF arm
VEGF [6] = biological target: T1, VEGF; experiment: bridging ELISA of exchange reaction mix, 1.3 µM input; VEGF coated, digoxygenin-Cy5 detection; highest value = 100%; binder has neither arm
VEGF [7] = biological target: T1, VEGF; experiment: bridging ELISA, VEGF coated, biocytinamid-Cy5 detection; binder has bio and PDGF arms, no VEGF arm
VEGF [8] = biological target: T1, VEGF; experiment: bridging ELISA, VEGF coated, biocytinamid-Cy5 or digoxygenin-Cy5 detection; binder has bio and dig arms, no VEGF arm
VEGF [9] = biological target: T1, VEGF; experiment: bridging ELISA, VEGF coated, digoxygenin-Cy5 detection; binder has dig arm, no VEGF arm

B1: anti-dig/anti-PDGF bispecific antibody (exchange reaction: dig MHCFcRP-knob-E357K row x PDGF MHCFcRP-hole-K370E column) (bispecific antibody, human IgG1, not shown: small tags and cut ends)
heavy 1: QVQLVESGGGLVKPGGSLRLSCAASGFTFSDYAMSWIRQAPGKGLEWVSSINIGATYIYYADSVKGRFTISRDNAKNSLYLQMNSLRAEDTAVYYCARPGSPYEYDKAYYSMAYWGQGTTVTVSSASTKGPSVFPLAPSSKSTSGGTAALGCLVKDYFPEPVTVSWNSGALTSGVHTFPAVLQSSGLYSLSSVVTVPSSSLGTQTYICNVNHKPSNTKVDKKVEPKSC
light 1: not shown
heavy 2: EVQLVESGGGLVQPGGSLRLSCAASGFTFSSYWMSWVRQAPEKGLEWVSTISDGGGLTYYADSVKGRFTISRDNAKNSLYLQMNSLRAEDTAVYYCAESGGYTDWLFGYWGQGTLVTVSSASTKGPSVFPLAPSSKSTSGGTAALGCLVKDYFPEPVTVSWNSGALTSGVHTFPAVLQSSGLYSLSSVVTVPSSSLGTQTYICNVNHKPSNTKVDKKVEPKSC
light 2: not shown
notes: Product of the 2/3-IgG exchange reaction, tested as reaction mix; human IgG1 knob-into-hole format; also called dig/PDGF bsAb
For B1, the relative signal intensity (VEGF [1]) was 7%, the relative signal intensity (VEGF [2]) was 9.9% and the binding result (VEGF [3]) was “no binding (tested: 1.3 µM input molecule concentration)”.

B2: anti-PDGF/anti-dig bispecific antibody (exchange reaction: PDGF MHCFcRP-knob-E357K row x dig MHCFcRP-hole-K370E column) (bispecific antibody, human IgG1, not shown: small tags and cut ends)
heavy 1: EVQLVESGGGLVQPGGSLRLSCAASGFTFSSYWMSWVRQAPEKGLEWVSTISDGGGLTYYADSVKGRFTISRDNAKNSLYLQMNSLRAEDTAVYYCAESGGYTDWLFGYWGQGTLVTVSSASTKGPSVFPLAPSSKSTSGGTAALGCLVKDYFPEPVTVSWNSGALTSGVHTFPAVLQSSGLYSLSSVVTVPSSSLGTQTYICNVNHKPSNTKVDKKVEPKSC
light 1: not shown
heavy 2: QVQLVESGGGLVKPGGSLRLSCAASGFTFSDYAMSWIRQAPGKGLEWVSSINIGATYIYYADSVKGRFTISRDNAKNSLYLQMNSLRAEDTAVYYCARPGSPYEYDKAYYSMAYWGQGTTVTVSSASTKGPSVFPLAPSSKSTSGGTAALGCLVKDYFPEPVTVSWNSGALTSGVHTFPAVLQSSGLYSLSSVVTVPSSSLGTQTYICNVNHKPSNTKVDKKVEPKSC
light 2: not shown
notes: Product of the 2/3-IgG exchange reaction, tested as reaction mix; human IgG1 knob-into-hole format; also called PDGF/dig bsAb
For B2, the relative signal intensity (VEGF [1]) was 5.9%, the relative signal intensity (VEGF [2]) was 9.2% and the binding result (VEGF [3]) was “no binding (tested: 1.3 µM input molecule concentration)”.

B3: anti-bio/anti-fluos bispecific antibody (exchange reaction: bio MHCFcRP-knob-E357K row x fluos MHCFcRP-hole-K370E column) (bispecific antibody, human IgG1, kappa)
heavy 1: not shown
light 1: DIQMTQSPSSLSASVGDRVTITCRASGNIHNYLSWYQQKPGKVPKLLIYSAKTLADGVPSRFSGSGSGTDFTLTISSLQPEDVATYYCQHFWSSIYTFGQGTKLEIKRTVAAPSVFIFPPSDEQLKSGTASVVCLLNNFYPREAKVQWKVDNALQSGNSQESVTEQDSKDSTYSLSSTLTLSKADYEKHKVYACEVTHQGLSSPVTKSFNRGEC
heavy 2: not shown
light 2: DIVMTQTPLSLSVTPGQPASISCKSSQSLVHSNGNTYLRWYLQKPGQSPKVLIYKVSNRVSGVPDRFSGSGSGTDFTLKISRVEAEDVGVYYCSQSTHVPWTFGQGTKLEIKRTVAAPSVFIFPPSDEQLKSGTASVVCLLNNFYPREAKVQWKVDNALQSGNSQESVTEQDSKDSTYSLSSTLTLSKADYEKHKVYACEVTHQGLSSPVTKSFNRGEC
notes: Product of the 2/3-IgG exchange reaction, tested as reaction mix; human IgG1 knob-into-hole format; also called bio/fluos bsAb
For B3, the binding result (VEGF [4]) was “no binding (tested: 1.3 µM input molecule concentration)”, the relative signal intensity (VEGF [5]) was 9% and the relative signal intensity (VEGF [6]) was 7.2%.

B4: anti-bio/anti-PDGF bispecific antibody (exchange reaction: bio MHCFcRP-knob-E357K row x PDGF MHCFcRP-hole-K370E column) (bispecific antibody, human IgG1, not shown: small tags and cut ends)
heavy 1: not shown
light 1: DIQMTQSPSSLSASVGDRVTITCRASGNIHNYLSWYQQKPGKVPKLLIYSAKTLADGVPSRFSGSGSGTDFTLTISSLQPEDVATYYCQHFWSSIYTFGQGTKLEIKRTVAAPSVFIFPPSDEQLKSGTASVVCLLNNFYPREAKVQWKVDNALQSGNSQESVTEQDSKDSTYSLSSTLTLSKADYEKHKVYACEVTHQGLSSPVTKSFNRGEC
heavy 2: EVQLVESGGGLVQPGGSLRLSCAASGFTFSSYWMSWVRQAPEKGLEWVSTISDGGGLTYYADSVKGRFTISRDNAKNSLYLQMNSLRAEDTAVYYCAESGGYTDWLFGYWGQGTLVTVSSASTKGPSVFPLAPSSKSTSGGTAALGCLVKDYFPEPVTVSWNSGALTSGVHTFPAVLQSSGLYSLSSVVTVPSSSLGTQTYICNVNHKPSNTKVDKKVEPKSC
light 2: not shown
notes: Product of the 2/3-IgG exchange reaction, tested as reaction mix; human IgG1 knob-into-hole format; also called bio/PDGF bsAb
B4 was tested, and the binding result (VEGF [7]) was “no binding (tested: 1.3 µM input molecule concentration)”, the relative signal intensity (VEGF [5]) was 10.1% and the relative signal intensity (VEGF [6]) was 6.1%.

B5: anti-fluos/anti-bio bispecific antibody (exchange reaction: fluos MHCFcRP-knob-E357K row x bio MHCFcRP-hole-K370E column) (bispecific antibody, human IgG1, kappa)
heavy 1: not shown
light 1: DIVMTQTPLSLSVTPGQPASISCKSSQSLVHSNGNTYLRWYLQKPGQSPKVLIYKVSNRVSGVPDRFSGSGSGTDFTLKISRVEAEDVGVYYCSQSTHVPWTFGQGTKLEIKRTVAAPSVFIFPPSDEQLKSGTASVVCLLNNFYPREAKVQWKVDNALQSGNSQESVTEQDSKDSTYSLSSTLTLSKADYEKHKVYACEVTHQGLSSPVTKSFNRGEC
heavy 2: not shown
light 2: DIQMTQSPSSLSASVGDRVTITCRASGNIHNYLSWYQQKPGKVPKLLIYSAKTLADGVPSRFSGSGSGTDFTLTISSLQPEDVATYYCQHFWSSIYTFGQGTKLEIKRTVAAPSVFIFPPSDEQLKSGTASVVCLLNNFYPREAKVQWKVDNALQSGNSQESVTEQDSKDSTYSLSSTLTLSKADYEKHKVYACEVTHQGLSSPVTKSFNRGEC
notes: Product of the 2/3-IgG exchange reaction, tested as reaction mix; human IgG1 knob-into-hole format; also called fluos/bio bsAb
With B5 the binding result (VEGF [4]) was “no binding (tested: 1.3 µM input molecule concentration)”, the relative signal intensity (VEGF [5]) was 10.2% and the relative signal intensity (VEGF [6]) was 6.5%.

B6: anti-dig/anti-bio bispecific antibody (exchange reaction: dig MHCFcRP-knob-E357K row x bio MHCFcRP-hole-K370E column) (bispecific antibody, human IgG1, not shown: small tags and cut ends)
heavy 1: QVQLVESGGGLVKPGGSLRLSCAASGFTFSDYAMSWIRQAPGKGLEWVSSINIGATYIYYADSVKGRFTISRDNAKNSLYLQMNSLRAEDTAVYYCARPGSPYEYDKAYYSMAYWGQGTTVTVSSASTKGPSVFPLAPSSKSTSGGTAALGCLVKDYFPEPVTVSWNSGALTSGVHTFPAVLQSSGLYSLSSVVTVPSSSLGTQTYICNVNHKPSNTKVDKKVEPKSC
light 1: not shown
heavy 2: not shown
light 2: DIQMTQSPSSLSASVGDRVTITCRASGNIHNYLSWYQQKPGKVPKLLIYSAKTLADGVPSRFSGSGSGTDFTLTISSLQPEDVATYYCQHFWSSIYTFGQGTKLEIKRTVAAPSVFIFPPSDEQLKSGTASVVCLLNNFYPREAKVQWKVDNALQSGNSQESVTEQDSKDSTYSLSSTLTLSKADYEKHKVYACEVTHQGLSSPVTKSFNRGEC
notes: Product of the 2/3-IgG exchange reaction, tested as reaction mix; human IgG1 knob-into-hole format; also called dig/bio bsAb
For B6, the relative signal intensity (VEGF [1]) was 6.2%, the binding result (VEGF [8]) was “no binding (tested: 1.3 µM input molecule concentration)” and the relative signal intensity (VEGF [5]) was 9%.

B7: anti-fluos/anti-dig bispecific antibody (exchange reaction: fluos MHCFcRP-knob-E357K row x dig MHCFcRP-hole-K370E column) (bispecific antibody, human IgG1, not shown: small tags and cut ends)
heavy 1: not shown
light 1: DIVMTQTPLSLSVTPGQPASISCKSSQSLVHSNGNTYLRWYLQKPGQSPKVLIYKVSNRVSGVPDRFSGSGSGTDFTLKISRVEAEDVGVYYCSQSTHVPWTFGQGTKLEIKRTVAAPSVFIFPPSDEQLKSGTASVVCLLNNFYPREAKVQWKVDNALQSGNSQESVTEQDSKDSTYSLSSTLTLSKADYEKHKVYACEVTHQGLSSPVTKSFNRGEC
heavy 2: QVQLVESGGGLVKPGGSLRLSCAASGFTFSDYAMSWIRQAPGKGLEWVSSINIGATYIYYADSVKGRFTISRDNAKNSLYLQMNSLRAEDTAVYYCARPGSPYEYDKAYYSMAYWGQGTTVTVSSASTKGPSVFPLAPSSKSTSGGTAALGCLVKDYFPEPVTVSWNSGALTSGVHTFPAVLQSSGLYSLSSVVTVPSSSLGTQTYICNVNHKPSNTKVDKKVEPKSC
light 2: not shown
notes: Product of the 2/3-IgG exchange reaction, tested as reaction mix; human IgG1 knob-into-hole format; also called fluos/dig bsAb
With B7 the relative signal intensity (VEGF [1]) was 6.3%, the binding result (VEGF [9]) was “no binding (tested: 1.3 µM input molecule concentration)” and the relative signal intensity (VEGF [2]) was 9.4%.

B8: anti-PDGF/anti-bio bispecific antibody (exchange reaction: PDGF MHCFcRP-knob-E357K row x bio MHCFcRP-hole-K370E column) (bispecific antibody, human IgG1, not shown: small tags and cut ends)
heavy 1: EVQLVESGGGLVQPGGSLRLSCAASGFTFSSYWMSWVRQAPEKGLEWVSTISDGGGLTYYADSVKGRFTISRDNAKNSLYLQMNSLRAEDTAVYYCAESGGYTDWLFGYWGQGTLVTVSSASTKGPSVFPLAPSSKSTSGGTAALGCLVKDYFPEPVTVSWNSGALTSGVHTFPAVLQSSGLYSLSSVVTVPSSSLGTQTYICNVNHKPSNTKVDKKVEPKSC
light 1: not shown
heavy 2: not shown
light 2: DIQMTQSPSSLSASVGDRVTITCRASGNIHNYLSWYQQKPGKVPKLLIYSAKTLADGVPSRFSGSGSGTDFTLTISSLQPEDVATYYCQHFWSSIYTFGQGTKLEIKRTVAAPSVFIFPPSDEQLKSGTASVVCLLNNFYPREAKVQWKVDNALQSGNSQESVTEQDSKDSTYSLSSTLTLSKADYEKHKVYACEVTHQGLSSPVTKSFNRGEC
notes: Product of the 2/3-IgG exchange reaction, tested as reaction mix; human IgG1 knob-into-hole format; also called PDGF/bio bsAb
In the case of B8, the binding result (VEGF [7]) is reported as “no binding (tested: 1.3 µM input molecule concentration)”, the relative signal intensity (VEGF [5]) is reported as 10.5% and the relative signal intensity (VEGF [6]) is reported as 6%.

B9: anti-bio/anti-dig bispecific antibody (exchange reaction: bio MHCFcRP-knob-E357K row x dig MHCFcRP-hole-K370E column) (bispecific antibody, human IgG1, not shown: small tags and cut ends)
heavy 1: not shown
light 1: DIQMTQSPSSLSASVGDRVTITCRASGNIHNYLSWYQQKPGKVPKLLIYSAKTLADGVPSRFSGSGSGTDFTLTISSLQPEDVATYYCQHFWSSIYTFGQGTKLEIKRTVAAPSVFIFPPSDEQLKSGTASVVCLLNNFYPREAKVQWKVDNALQSGNSQESVTEQDSKDSTYSLSSTLTLSKADYEKHKVYACEVTHQGLSSPVTKSFNRGEC
heavy 2: QVQLVESGGGLVKPGGSLRLSCAASGFTFSDYAMSWIRQAPGKGLEWVSSINIGATYIYYADSVKGRFTISRDNAKNSLYLQMNSLRAEDTAVYYCARPGSPYEYDKAYYSMAYWGQGTTVTVSSASTKGPSVFPLAPSSKSTSGGTAALGCLVKDYFPEPVTVSWNSGALTSGVHTFPAVLQSSGLYSLSSVVTVPSSSLGTQTYICNVNHKPSNTKVDKKVEPKSC
light 2: not shown
notes: Product of the 2/3-IgG exchange reaction, tested as reaction mix; human IgG1 knob-into-hole format; also called bio/dig bsAb
For B9, the relative signal intensity (VEGF [1]) was 6.2%, the binding result (VEGF [8]) was “no binding (tested: 1.3 µM input molecule concentration)” and the relative signal intensity (VEGF [5]) was 9.3%.
